The test addresses importin α5 (UniProt P52294). Description: Flag co-IP, immunoblot. Particulars: reference: Flag-GCLM wild type; sites T17. (In general: A western blot detects proteins with antibodies after separation by electrophoresis.)

Turning to “GCLM (glutamate-cysteine ligase modifier subunit) (from UniProt P48507) Flag-GCLM T17A”, the “binding against the reference” value is “weaker”.

For the origin of these results see article PMC11696352.
